Data as given in IntAct's records for PubMed 15908944.

Biological target: forh_dicdi forH (UniProt Q54N00)
Sequence (Q54N00 whole entry): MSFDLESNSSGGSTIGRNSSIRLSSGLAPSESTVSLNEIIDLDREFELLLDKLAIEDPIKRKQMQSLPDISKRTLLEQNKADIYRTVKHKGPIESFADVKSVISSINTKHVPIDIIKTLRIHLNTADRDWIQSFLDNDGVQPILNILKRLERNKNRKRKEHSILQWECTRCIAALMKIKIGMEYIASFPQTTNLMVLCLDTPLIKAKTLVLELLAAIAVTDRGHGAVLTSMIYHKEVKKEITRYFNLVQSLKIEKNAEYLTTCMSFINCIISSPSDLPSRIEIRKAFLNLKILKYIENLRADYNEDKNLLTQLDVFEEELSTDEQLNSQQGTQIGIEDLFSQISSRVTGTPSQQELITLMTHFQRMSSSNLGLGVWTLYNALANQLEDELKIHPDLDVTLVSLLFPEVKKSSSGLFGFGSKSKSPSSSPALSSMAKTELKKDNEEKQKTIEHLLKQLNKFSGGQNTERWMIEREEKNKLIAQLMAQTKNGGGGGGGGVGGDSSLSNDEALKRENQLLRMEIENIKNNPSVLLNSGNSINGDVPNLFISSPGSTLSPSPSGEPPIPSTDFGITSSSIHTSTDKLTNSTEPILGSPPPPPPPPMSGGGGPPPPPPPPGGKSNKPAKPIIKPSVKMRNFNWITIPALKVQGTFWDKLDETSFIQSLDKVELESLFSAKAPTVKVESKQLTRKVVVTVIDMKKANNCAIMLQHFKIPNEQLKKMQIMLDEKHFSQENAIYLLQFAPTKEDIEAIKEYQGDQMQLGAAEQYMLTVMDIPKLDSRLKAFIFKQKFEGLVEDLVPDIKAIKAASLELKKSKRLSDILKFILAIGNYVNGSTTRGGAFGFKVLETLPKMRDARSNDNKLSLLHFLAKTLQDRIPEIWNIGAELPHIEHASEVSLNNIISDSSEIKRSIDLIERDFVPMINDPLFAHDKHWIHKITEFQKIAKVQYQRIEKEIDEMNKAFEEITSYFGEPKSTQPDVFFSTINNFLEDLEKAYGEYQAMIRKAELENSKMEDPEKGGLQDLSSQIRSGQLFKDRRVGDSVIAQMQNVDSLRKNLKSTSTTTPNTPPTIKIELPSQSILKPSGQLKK

effect of a mutation on the interaction	Substance
decreasing interaction	Rho-related protein rac1A (Dictyostelium discoideum (Slime mold)), P34144 G12V
disrupting interaction	Rho-related protein rac1A (Dictyostelium discoideum (Slime mold)), P34144 T17N
